In FireProtDB (doi:10.1074/jbc.m304177200):

B1: Guanyl-specific ribonuclease Sa, P05798 (parent)
chain: DVSGTVCLSALPPEATDTLNLIASDGPFPYSQDGVVFQNRESVLPTQSYGYYHEYTVITPGARTRGTRRIITGEATQEDYYTGDHYATFSLIDQTC

Variants of: B1
Conditions: Kitasatospora aureofaciens, pH 7, Thermal, CD, MOPS 30 mM, reversible: yes(>95%), structure 1RGG, whole UniProt chain shown; for ddG of mutation (higher = less stable): 48.4 °C

Variant	ddG of mutation (higher = less stable) [kcal/mol]	Tm [°C]	change of melting temperature, mutant - wild type (higher = more stable) [°C]	unfolding enthalpy (van 't Hoff) [kcal/mol]
T82V	1.7	42.7	-5.7	81
T16V	-0.3	49.4	1	88
T18V	1.4	43.7	-4.7	80
V2T	0.9	45.2	-3.2	86
V36T	1.3	43.8	-4.6	88
T56V	1.9	42.1	-6.3	85
V43T	0.5	46.8	-1.6	93
T59V	1.7	42.8	-5.6	81
T5V	0			
V57T	4.4	33.4	-15	74
T67V	0	48.3	-0.1	88
T72V	0.2	47.6	-0.8	91
